Experimental data from patent US20260015406A1 (University of Pennsylvania, published 2026).

Assays:
[1] = molecular target: switchable CAR (sCAR) with anti-PNE single chain variable fragment; assay: flow cytometry, PNE-FITC titrated on sCAR T cells
[2] = molecular target: T1, human full length aminopeptidase N (APN, aka CD13) (human, UniProt P15144 2-967); assay: flow cytometry on patient-derived AML cells (AML2844)
T1 construct: whole, on cells

[3] = molecular target: T1, human full length aminopeptidase N …; assay: flow cytometry on THP-1 cells (endogenous CD13)
[4] = molecular target: T2, human full length CDH17, also called cadherin 17 or liver-intestine cadherin (human, UniProt Q12864 23-832); assay: cell-based or functional assay
T2 sequence (looked up): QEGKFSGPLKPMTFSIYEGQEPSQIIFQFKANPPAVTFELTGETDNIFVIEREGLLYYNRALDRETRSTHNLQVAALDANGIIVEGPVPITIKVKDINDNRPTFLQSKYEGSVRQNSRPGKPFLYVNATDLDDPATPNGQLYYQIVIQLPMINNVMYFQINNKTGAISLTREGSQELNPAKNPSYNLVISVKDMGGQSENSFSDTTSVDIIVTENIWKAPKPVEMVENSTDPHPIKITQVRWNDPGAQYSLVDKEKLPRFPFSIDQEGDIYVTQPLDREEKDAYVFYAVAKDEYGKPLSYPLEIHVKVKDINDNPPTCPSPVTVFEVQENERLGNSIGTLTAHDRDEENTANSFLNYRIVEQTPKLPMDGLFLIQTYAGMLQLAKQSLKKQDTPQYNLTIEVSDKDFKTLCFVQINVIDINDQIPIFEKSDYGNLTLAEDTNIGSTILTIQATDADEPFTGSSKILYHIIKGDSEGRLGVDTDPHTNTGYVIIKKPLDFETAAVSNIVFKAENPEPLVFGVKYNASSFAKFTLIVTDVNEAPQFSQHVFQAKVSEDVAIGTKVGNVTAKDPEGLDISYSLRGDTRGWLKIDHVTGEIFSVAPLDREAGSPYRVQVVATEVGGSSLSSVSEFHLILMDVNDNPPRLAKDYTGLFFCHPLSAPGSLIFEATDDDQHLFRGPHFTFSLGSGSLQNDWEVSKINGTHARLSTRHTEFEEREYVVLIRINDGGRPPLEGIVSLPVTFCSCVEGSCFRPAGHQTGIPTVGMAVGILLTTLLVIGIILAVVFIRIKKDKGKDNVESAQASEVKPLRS

mouse CDH17 = molecular target: T3, mouse CDH17 (mouse, UniProt Q9R100 26-827); assay: flow cytometry, VHH1-expressing phage on HEK293T cells transiently transfected with CDH17 cDNA
T3 construct: whole, on cells
T3 sequence (looked up): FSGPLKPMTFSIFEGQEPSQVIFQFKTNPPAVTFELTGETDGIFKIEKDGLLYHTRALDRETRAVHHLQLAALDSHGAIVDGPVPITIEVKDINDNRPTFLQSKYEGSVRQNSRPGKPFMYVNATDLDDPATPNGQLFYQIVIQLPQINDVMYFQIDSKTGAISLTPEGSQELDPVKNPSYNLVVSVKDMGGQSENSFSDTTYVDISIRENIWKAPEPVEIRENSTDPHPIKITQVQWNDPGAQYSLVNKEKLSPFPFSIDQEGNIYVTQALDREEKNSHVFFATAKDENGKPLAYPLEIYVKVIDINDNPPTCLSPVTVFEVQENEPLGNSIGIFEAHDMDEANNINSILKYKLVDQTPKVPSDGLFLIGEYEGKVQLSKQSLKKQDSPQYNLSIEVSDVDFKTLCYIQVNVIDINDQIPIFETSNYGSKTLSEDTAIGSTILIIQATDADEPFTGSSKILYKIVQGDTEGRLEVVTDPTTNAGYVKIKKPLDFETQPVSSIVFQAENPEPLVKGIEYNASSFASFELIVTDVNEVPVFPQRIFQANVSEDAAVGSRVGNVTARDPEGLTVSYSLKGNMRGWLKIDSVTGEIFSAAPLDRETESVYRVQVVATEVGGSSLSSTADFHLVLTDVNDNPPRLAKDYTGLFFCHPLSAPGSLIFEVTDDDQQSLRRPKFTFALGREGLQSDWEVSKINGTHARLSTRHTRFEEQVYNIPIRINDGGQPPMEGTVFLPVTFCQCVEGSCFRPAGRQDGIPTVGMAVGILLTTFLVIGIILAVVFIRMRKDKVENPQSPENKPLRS
Procedure: (§1) Next, to identify the protein antigen of the isolated VHH1 nanobody, ˜3000 human cell membrane protein cDNAs were prepared and transfected into HEK293T cells individually, followed by flow cytometry analysis with the VHH1-expressing phage and FITC-labeled secondary antibody against phage M13 protein (FIG. 12A). […] Human or mouse CDH17 cDNA was transiently transfected into HEK293T cells, followed by flow cytometry analysis with the VHH1-expressing phage and FITC-labeled secondary antibody against phage M13 protein.

[5] = molecular target: T2, human full length CDH17, also called …; assay: flow cytometry, VHH1-expressing phage on HEK293T cells transfected with membrane protein cDNAs
Procedure: as §1

T1 sequence (P15144 2-967): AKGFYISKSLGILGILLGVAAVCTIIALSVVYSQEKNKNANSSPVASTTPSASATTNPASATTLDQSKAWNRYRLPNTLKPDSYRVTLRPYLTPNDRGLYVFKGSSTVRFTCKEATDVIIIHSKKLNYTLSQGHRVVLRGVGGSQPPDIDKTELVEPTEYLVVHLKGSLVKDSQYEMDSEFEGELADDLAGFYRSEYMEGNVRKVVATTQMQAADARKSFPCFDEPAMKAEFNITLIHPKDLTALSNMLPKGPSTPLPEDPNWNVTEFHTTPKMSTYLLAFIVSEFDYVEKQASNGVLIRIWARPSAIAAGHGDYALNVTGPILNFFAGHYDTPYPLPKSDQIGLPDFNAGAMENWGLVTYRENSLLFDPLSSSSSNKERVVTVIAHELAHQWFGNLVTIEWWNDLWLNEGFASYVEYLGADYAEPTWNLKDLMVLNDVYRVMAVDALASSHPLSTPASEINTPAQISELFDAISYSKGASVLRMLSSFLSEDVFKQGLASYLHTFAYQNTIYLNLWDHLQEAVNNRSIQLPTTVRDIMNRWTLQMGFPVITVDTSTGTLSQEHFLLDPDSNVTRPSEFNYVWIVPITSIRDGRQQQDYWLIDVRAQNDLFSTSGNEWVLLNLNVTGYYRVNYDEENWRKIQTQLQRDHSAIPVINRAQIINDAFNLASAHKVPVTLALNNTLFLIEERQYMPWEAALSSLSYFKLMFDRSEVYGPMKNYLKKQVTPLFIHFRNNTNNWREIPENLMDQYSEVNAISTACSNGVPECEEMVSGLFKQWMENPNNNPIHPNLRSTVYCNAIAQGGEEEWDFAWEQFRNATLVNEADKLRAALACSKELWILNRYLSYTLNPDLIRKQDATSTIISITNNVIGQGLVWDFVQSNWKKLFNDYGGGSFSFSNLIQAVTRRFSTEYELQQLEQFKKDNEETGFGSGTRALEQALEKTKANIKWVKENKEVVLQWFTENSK

FITC-labeled PNE-peptide
EC50 [1]: 0.001 µM

B1: Nb163 (VHH)
VHH: QVQLQESGGGLVQPGGSLRLSCVPSGFTFDGYLIGWFRQAPGSERKAVSCISVNGDRTNYADSVKGRFTISRDNAKNTVYLQMNSLRPNDTAIYYCATRRGNRLYNNNCPYFEYGTWGQGTQVTVSS
notes: also called VHH163; VH163
binding result [2]: binds

B2: Nb157-C-PNE (VHH)
VHH: QVQLQESGGGLVQPGGSLSLSCTASGFTFSSYSMAWVRQAPGKGPEWVSGIYPSDGKTRYADFVKGRFSISRDNAKNMLYLQMNNLEPEDTALYYCARGITGLGPRGQGTQVTVSS
notes: also called VHH157-C-PNE; Nb157 with C-terminal PNE; not shown: PNE, a fourteen amino acid peptide
Kd [3]: ~0.035 µM

B3: Nb157 (VHH)
VHH: QVQLQESGGGLVQPGGSLSLSCTASGFTFSSYSMAWVRQAPGKGPEWVSGIYPSDGKTRYADFVKGRFSISRDNAKNMLYLQMNNLEPEDTALYYCARGITGLGPRGQGTQVTVSS
notes: Llama nanobody from the THP-1-immunised library; also called VHH157; VH157
Kd [3]: ~0.035 µM

B4: Nb157-N-PNE (VHH)
VHH: QVQLQESGGGLVQPGGSLSLSCTASGFTFSSYSMAWVRQAPGKGPEWVSGIYPSDGKTRYADFVKGRFSISRDNAKNMLYLQMNNLEPEDTALYYCARGITGLGPRGQGTQVTVSS
notes: also called VHH157-N-PNE; Nb157 with N-terminal PNE; not shown: PNE, a fourteen amino acid peptide
Kd [3]: ~0.09 µM

B5: VLV-DM1 (VHH, not shown: small tags and cut ends)
VHH 1: QVQLQESGGGLVQPGGSTRLSCVSSRTFSYYDMGWFRQAPGKEREFVALLSWNGENAEYSDSVMGRFTVSRGNTQNSVNLQMNNLKPEDTGIYYCAVTHGGARSVRSWGQGTQVTVSS
VHH 2: QVQLQESGGGLVQPGGSTRLSCVSSRTFSYYDMGWFRQAPGKEREFVALLSWNGENAEYSDSVMGRFTVSRGNTQNSVNLQMNNLKPEDTGIYYCAVTHGGARSVRSWGQGTQVTVSS
modifications: Mertansine (DM1) is conjugated to the VLV protein; the residues, number of drugs and chemical linker are not stated. In reality one polypeptide: the two VHH1 units are joined by a peptide linker whose letters are not given.
IC50, in vitro killing of BON cells (MTT assay) [4]: 0.0012 µM

B6: VHH1 nanobody (VHH)
VHH: QVQLQESGGGLVQPGGSTRLSCVSSRTFSYYDMGWFRQAPGKEREFVALLSWNGENAEYSDSVMGRFTVSRGNTQNSVNLQMNNLKPEDTGIYYCAVTHGGARSVRSWGQGTQVTVSS
notes: From a naive llama phage library panned on BON cells
binding result (mouse CDH17): binds
binding result [5]: binds
